In patent US20210155682A1, “COMPOSITIONS AND METHODS FOR REDUCTION OF LIPOPROTEIN A FORMATION AND TREATMENT OF AORTIC VALVE SCLEROSIS AND AORTIC STENOSIS” (Abcentra, LLC, priority 2018, published 2021):
Entries after “also recorded” stand apart in the source; their conditions may differ.

What was measured:
[1] = molecular target: purified human LDL, carrying apolipoprotein B100 (human) (UniProt P04114); assay: Western blot of covalent assembly of 5 nM 17K r-apo(a) with 100 nM LDL, 8 h
[2] = molecular target: purified human LDL, carrying apolipoprotein B100 (human) (UniProt P04114); assay: Western blot of covalent assembly of 5 nM 17K r-apo(a) with 100 nM LDL, 8 h, 10 µM orticumab
[3] = molecular target: purified human LDL, carrying apolipoprotein B100 (human) (UniProt P04114); assay: Western blot of covalent assembly of 5 nM 17K r-apo(a) with 100 nM LDL, 8 h, 0.1 µM orticumab
[4] = molecular target: purified human LDL, carrying apolipoprotein B100 (human) (UniProt P04114); assay: Western blot of covalent assembly of 5 nM 17K r-apo(a) with 100 nM LDL, 8 h, orticumab at '1' (unit missing, by context 1 µM)
[5] = molecular target: T1, non-covalent binding between apo(a) and LDL (Homo sapiens, UniProt P04114); assay: Fluorescence assay of non-covalent binding: quenching of Flu-LDL by 17K r-apo(a)
T1 construct: made in house; host or cells: apo(a): stably-expressing HEK293 cell lines; LDL: plasma of a healthy donor
T1 sequence (P04114 28-4563): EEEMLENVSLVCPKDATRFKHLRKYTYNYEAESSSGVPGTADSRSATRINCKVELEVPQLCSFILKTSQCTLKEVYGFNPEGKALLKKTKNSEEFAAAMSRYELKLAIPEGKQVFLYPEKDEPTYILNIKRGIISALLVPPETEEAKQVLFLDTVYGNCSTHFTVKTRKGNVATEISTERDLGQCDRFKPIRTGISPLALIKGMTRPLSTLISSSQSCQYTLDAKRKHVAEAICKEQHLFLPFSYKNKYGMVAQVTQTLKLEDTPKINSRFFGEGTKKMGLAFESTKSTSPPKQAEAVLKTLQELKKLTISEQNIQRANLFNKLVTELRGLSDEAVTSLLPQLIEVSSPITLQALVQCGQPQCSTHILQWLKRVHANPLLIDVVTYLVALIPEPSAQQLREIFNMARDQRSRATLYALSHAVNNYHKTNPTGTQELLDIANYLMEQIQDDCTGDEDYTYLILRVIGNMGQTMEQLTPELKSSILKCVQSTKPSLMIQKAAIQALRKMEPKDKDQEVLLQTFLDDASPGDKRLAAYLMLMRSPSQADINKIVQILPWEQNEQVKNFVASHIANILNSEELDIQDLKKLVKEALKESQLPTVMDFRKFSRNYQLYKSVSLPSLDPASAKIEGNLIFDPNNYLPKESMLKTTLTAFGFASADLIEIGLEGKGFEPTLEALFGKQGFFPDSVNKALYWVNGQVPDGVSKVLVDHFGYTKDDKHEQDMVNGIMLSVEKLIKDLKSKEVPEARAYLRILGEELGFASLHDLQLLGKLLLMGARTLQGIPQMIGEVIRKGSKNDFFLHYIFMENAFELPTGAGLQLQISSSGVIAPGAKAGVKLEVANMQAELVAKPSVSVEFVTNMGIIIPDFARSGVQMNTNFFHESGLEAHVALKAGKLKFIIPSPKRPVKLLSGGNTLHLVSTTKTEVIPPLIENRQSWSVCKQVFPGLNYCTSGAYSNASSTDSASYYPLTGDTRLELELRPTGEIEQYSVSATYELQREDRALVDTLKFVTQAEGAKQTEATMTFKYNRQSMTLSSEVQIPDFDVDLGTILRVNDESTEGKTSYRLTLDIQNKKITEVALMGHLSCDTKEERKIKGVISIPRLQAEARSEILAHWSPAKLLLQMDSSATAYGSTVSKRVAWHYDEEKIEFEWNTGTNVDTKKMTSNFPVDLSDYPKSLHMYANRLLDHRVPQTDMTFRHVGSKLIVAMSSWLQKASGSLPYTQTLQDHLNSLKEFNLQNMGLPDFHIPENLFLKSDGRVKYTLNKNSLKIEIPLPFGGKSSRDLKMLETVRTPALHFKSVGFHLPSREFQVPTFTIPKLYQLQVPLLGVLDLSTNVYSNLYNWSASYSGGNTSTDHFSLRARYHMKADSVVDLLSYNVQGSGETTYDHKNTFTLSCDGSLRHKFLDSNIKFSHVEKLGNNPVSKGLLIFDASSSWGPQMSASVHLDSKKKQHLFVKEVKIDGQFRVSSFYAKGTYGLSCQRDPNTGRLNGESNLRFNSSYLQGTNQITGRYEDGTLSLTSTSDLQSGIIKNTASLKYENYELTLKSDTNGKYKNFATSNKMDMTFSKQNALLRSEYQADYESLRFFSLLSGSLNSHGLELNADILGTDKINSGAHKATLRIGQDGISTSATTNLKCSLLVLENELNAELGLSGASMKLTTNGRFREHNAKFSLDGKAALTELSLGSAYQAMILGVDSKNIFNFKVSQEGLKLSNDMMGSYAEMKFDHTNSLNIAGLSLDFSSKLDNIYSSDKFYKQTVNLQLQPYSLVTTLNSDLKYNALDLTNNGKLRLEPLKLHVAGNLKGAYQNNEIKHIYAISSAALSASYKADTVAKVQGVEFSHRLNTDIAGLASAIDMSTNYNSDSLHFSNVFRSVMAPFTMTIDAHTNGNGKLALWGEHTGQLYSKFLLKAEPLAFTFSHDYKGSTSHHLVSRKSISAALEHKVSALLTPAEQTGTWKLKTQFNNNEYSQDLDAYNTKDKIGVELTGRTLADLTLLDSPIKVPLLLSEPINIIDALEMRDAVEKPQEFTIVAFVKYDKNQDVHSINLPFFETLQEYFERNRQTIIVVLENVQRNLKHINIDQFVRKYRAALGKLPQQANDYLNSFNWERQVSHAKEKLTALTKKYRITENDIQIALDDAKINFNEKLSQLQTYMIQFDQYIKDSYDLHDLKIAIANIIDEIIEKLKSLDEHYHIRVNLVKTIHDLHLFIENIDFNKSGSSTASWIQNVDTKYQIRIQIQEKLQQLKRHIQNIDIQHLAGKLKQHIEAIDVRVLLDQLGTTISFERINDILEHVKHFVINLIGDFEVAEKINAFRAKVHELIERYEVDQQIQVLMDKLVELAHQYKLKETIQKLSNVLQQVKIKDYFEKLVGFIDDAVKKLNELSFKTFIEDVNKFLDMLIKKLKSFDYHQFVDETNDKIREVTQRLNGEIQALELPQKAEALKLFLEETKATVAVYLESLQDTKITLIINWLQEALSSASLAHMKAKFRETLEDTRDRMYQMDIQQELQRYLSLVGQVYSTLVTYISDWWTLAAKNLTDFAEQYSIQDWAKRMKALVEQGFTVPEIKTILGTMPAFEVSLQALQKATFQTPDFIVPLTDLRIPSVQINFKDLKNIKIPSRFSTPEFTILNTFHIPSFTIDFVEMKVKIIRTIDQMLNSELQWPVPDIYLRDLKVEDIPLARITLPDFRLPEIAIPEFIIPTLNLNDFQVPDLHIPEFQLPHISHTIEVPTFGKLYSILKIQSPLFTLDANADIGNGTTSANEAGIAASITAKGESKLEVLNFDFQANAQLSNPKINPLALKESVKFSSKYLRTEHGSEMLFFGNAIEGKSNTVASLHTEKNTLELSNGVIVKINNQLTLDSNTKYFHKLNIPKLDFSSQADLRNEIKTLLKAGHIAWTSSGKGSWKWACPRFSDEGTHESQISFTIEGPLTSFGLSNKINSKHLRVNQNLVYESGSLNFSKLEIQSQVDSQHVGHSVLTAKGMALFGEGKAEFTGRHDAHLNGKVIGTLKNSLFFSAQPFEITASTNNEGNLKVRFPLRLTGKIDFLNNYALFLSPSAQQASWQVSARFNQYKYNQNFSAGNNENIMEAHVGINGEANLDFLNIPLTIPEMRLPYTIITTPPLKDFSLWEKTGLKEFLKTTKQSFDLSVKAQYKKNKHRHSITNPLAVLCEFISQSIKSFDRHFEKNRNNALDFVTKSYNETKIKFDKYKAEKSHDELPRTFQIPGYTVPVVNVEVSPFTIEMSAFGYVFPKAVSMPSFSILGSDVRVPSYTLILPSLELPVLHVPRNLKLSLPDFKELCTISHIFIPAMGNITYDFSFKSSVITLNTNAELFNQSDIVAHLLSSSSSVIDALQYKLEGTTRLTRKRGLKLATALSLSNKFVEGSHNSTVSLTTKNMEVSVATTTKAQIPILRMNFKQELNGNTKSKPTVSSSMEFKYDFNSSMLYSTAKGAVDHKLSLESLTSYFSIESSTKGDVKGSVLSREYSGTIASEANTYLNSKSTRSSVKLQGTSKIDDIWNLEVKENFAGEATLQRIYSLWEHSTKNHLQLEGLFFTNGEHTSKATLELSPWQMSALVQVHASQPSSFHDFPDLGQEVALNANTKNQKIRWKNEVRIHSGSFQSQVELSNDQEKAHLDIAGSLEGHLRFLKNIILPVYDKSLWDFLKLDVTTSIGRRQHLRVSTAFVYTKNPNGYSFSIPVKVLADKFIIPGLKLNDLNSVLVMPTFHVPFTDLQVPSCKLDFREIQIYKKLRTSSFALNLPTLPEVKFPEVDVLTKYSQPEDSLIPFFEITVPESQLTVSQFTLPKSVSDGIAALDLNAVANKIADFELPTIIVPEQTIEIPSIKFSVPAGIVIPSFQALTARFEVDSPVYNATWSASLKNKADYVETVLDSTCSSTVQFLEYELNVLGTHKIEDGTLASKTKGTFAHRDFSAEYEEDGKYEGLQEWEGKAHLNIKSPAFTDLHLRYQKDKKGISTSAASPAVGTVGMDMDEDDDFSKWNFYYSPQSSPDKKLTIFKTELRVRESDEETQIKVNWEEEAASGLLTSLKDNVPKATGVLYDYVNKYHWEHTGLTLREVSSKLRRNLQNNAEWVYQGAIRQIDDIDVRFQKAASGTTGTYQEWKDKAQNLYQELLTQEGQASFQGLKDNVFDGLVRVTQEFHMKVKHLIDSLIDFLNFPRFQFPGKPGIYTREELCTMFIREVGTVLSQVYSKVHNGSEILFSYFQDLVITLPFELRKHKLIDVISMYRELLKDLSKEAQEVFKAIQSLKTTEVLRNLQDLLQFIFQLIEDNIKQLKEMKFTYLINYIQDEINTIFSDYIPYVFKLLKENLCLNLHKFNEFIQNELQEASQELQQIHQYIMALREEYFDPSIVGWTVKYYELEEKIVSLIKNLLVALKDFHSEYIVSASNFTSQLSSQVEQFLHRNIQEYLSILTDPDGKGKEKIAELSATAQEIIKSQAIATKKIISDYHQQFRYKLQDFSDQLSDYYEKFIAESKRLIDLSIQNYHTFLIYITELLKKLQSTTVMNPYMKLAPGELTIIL

[6] = molecular target: T2, covalent binding between apo(a) and LDL (Lp(a) formation) (Homo sapiens, UniProt P04114); assay: Covalent Lp(a) assembly assay, Western blot (% r-Lp(a)); assay type: biochemical; settings: for percent inhibition of Lp(a) formation: FIG. 10; for Reduction of covalent Lp(a) compared with control antibodies: 4 hours, orticumab 0.01-10 μM, FIG. 8
T2 construct: made in house; host or cells: apo(a): stably-expressing HEK293 cell lines; LDL: plasma of a healthy donor
T2 sequence (P04114 28-4563): as above
Procedure: Purified LDL (100 nM) and 17K apo(a) (5 nM) were incubated with conditioned serum-free medium (OptiMEM; Gibco) from HEK293 cells in the presence of 0, 0.01, 0.1, 1.0, and 10 μM of orticumab at 37° C. The reactions were mixed thoroughly every hour and stopped after 4 or 8 hrs by adding 4×SDS-PAGE sample buffer. Samples were then boiled for 5 min at 95° C. and subjected to SDS-PAGE on 6% polyacrylamide gel. After electrophoresis, separated proteins were electroblotted onto a PVDF membrane, blocked, and incubated with a monoclonal antibody (A5) specific for apo(a). HRP-conjugated goat anti-mouse IgG secondary antibody was used to develop a signal in the presence of a chemiluminescence reagent and images were captured using a ChemiDoc system (Bio-Rad). Band intensity (BI) of western-blots were quantified using IMAGELAB software for recombinant Lp(a) formation using the following equation: % r-Lp(a)=BI(Lp(a))/[BI(Lp(a))+BI(apo(a))]. A Two-Way ANOVA with Tukey post-hoc test was used to analyze the data in GraphPad Prism 7.0.
Covalent binding between apo(a) and LDL was assessed over time by appearance of Lp(a) protein on a Western blot. Using serum-free HEK293 cell-conditioned medium, Lp(a) formation was evaluated after incubation of 17K r-apo(a) with LDL from 0-8 hours; isolated Lp(a), 17K apo(a) alone, and media alone were used as controls.
Next, the effect of orticumab on inhibition of covalent binding between apo(a) and LDL was assessed by Western blot analysis. 17K r-apo(a) (5 nM) was incubated with LDL (100 nM) in serum free HEK293 cell-conditioned medium for 4 hours at 37° C. in the presence of orticumab at 0.1, 1, 5, and 10 μM.
To determine whether inhibition of Lp(a) formation occurs at a later time point when Lp(a) formation appears to be maximal, the Western blot experiments were repeated after a 0- and 8-hour incubation of 5 nM 17K r-apo(a) and 100 nM LDL in the presence of orticumab at 0.01, 0.1, 1, and 10 μM in serum free HEK293 cell-conditioned medium (FIG. 9). The results were then quantified (FIG. 10) and analyzed.

[7] = molecular target: T3, Flu-LDL (Homo sapiens, UniProt P04114); assay: Antibody interference with Flu-LDL fluorescence (Flu-LDL alone); settings: Flu-LDL 100 nM; orticumab 0.1-1000 nM; FIG. 5
T3 construct: from tissue; host or cells: plasma of a healthy donor
T3 sequence (P04114 28-4563): as above

Sequence of purified human LDL, carrying apolipoprotein B100 (human) (P04114 28-4563): as above

| Substance | percent inhibition of Lp(a) formation [1] [%] | percent inhibition of Lp(a) formation [2] [%] | percent inhibition of Lp(a) formation [3] [%] | percent inhibition of Lp(a) formation [4] [%] | Concentration at which the antibody interfered with fluorescence ([5]; Flu-LDL 30 nM, 17K r-apo(a) 300 nM, FIG. 4A) [nM] | Concentration of maximum response in dose-response titration ([5]; de-quenching of Flu-LDL fluorescence, FIG. 3) [nM] | Inhibition of non-covalent binding between apo(a) and LDL, overall statement ([5]; fluorescence assay, summary of Example 3) | Alleviation of quenching of Flu-LDL by 17K apo(a), antibody titration ([5]; orticumab 0-1000 nM, Flu-LDL 50 nM, 17K r-apo(a) 500 nM, FIG. 3) | Inhibition of non-covalent apo(a)/Flu-LDL binding in 17K apo(a) titration ([5]; orticumab 1000 nM, Flu-LDL 50 nM, 17K r-apo(a) 0-1000 nM, FIG. 2) | De-quenching of Flu-LDL fluorescence at lower concentrations ([5]; orticumab 0.4096-100 nM, Flu-LDL 30 nM, 17K r-apo(a) 300 nM, FIG. 4A) | percent inhibition of Lp(a) formation ([6]; 0.01 μM orticumab, 8-hour incubation, 17K r-apo(a) 5 nM, LDL 100 nM) [%] | percent inhibition of Lp(a) formation ([6]; 0.1 μM orticumab, 8-hour incubation, 17K r-apo(a) 5 nM, LDL 100 nM) [%] | percent inhibition of Lp(a) formation ([6]; 10 μM orticumab, 8-hour incubation, 17K r-apo(a) 5 nM, LDL 100 nM) [%] | Lp(a) band on Western blot ([6]; 10 μM orticumab, 4 hours at 37° C., 17K r-apo(a) 5 nM, LDL 100 nM, FIG. 7) | Inhibition of Lp(a) formation, in words ([6]; 8-hour incubation, orticumab 0.01, 0.1, 1 and 10 μM, FIG. 9, 10) | Reduction of covalent Lp(a) compared with control antibodies ([6]; 17K r-apo(a) 5 nM, LDL 100 nM) | Reduction of covalent Lp(a) compared with control antibodies ([6]; 17K r-apo(a) 5 nM, LDL 100 nM, listed as Orticumab) | Inhibition of covalent binding between apo(a) and LDL, overall statement ([6]; orticumab 0.01, 0.1, 1 and 10 μM, Western blot) | percent inhibition of Lp(a) formation ([6]; orticumab "At 1" (unit not given), 8-hour incubation, 17K r-apo(a) 5 nM, LDL 100 nM) [%] | Effect on fluorescence of Flu-LDL alone [7] |
| --- | --- | --- | --- | --- | --- | --- | --- | --- | --- | --- | --- | --- | --- | --- | --- | --- | --- | --- | --- | --- |
| orticumab (antibody) | 21.4 | 73.5 | 25.8 | 35 |  |  |  |  |  |  |  |  |  |  |  |  |  |  |  |  |
| orticumab: human monoclonal antibody against apoB100 epitope P45 (residues 661-680); heavy chain SEQ ID No: 10, light chain SEQ ID No: 11 |  |  |  |  | ≤ 0.4 | 1000 | very effective in inhibiting non-covalent binding | able to alleviate the quenching; also recorded: much lower than that of the polyclonal anti-apoB antibody or EACA | inhibited the binding; also recorded: on par with the anti-apo(a) antibody; also recorded: interfered with the apo(a) and Flu-LDL interaction | not able to de-quench; also recorded: no effect on de-quenching the fluorescence | 21.37 | 25.8 | 73.46 | Disappearance of the Lp(a) band | significantly inhibited Lp(a) formation; also recorded: decreased Lp(a) covalent assembly at the lowest concentration tested | behaves similarly in reducing covalent Lp(a) | as effective as the anti-apoB or anti-apo(a) control antibodies | inhibited | 34.99 | increased the fluorescence of Flu-LDL to a higher level; also recorded: enhanced fluorescent signal |
